In publication PMC4836915 (Journal of cystic fibrosis : official journal of the …, 2015) one finds Kd data, which are given here for one molecule.

For this assay, the target named is T1, recombinant Porin D (P. aeruginosa PAO1, UniProt P32722 24-443).
T1 sequence: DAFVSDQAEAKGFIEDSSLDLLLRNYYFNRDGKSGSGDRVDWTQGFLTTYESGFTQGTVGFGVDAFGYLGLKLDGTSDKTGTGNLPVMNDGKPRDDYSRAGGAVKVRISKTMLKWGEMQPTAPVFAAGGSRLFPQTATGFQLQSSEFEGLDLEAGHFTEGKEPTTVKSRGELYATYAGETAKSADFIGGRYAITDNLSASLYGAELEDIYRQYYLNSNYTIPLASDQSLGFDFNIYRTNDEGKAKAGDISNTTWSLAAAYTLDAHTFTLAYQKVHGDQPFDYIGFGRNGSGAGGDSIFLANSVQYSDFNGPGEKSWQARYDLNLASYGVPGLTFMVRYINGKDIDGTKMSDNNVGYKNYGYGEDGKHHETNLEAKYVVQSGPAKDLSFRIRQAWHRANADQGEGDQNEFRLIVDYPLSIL
Kind of assay: BLI. For orientation: In BLI a coated tip is dipped into the sample, and binding shifts an interference pattern.

B1: recombinant vitronectin aa 80-396 (domain or fragment, human, UniProt P04004 80-396, looked up)
chain: DGEEKNNATVHEQVGGPSLTSDLQAQSKGNPEQTPVLKPEEEAPAPEVGASKPEGIDSRPETLHPGRPQPPAEEELCSGKPFDAFTDLKNGSLFAFRGQYCYELDEKAVRPGYPKLIRDVWGIEGPIDAAFTRINCQGKTYLFKGSQYWRFEDGVLDPDYPRNISDGFDGIPDNVDAALALPAHSYSGRERVYFFKGKQYWEYQFQHQPSQEECEGSSLSAVFEHFAMMQRDSWEDIFELLFWGRTSAGTRQPQFISRDWHGVPGQVDAAMAGRIYISGMAPRPSLAKKQRFRHRNRKGYRSQRGHSRGRNQNSRRP
As to B1, the Kd is 3.6 nM.

By Kd is commonly meant the equilibrium constant for the complex coming apart.
